The source of these data is paper PMC6917434 (Journal of thrombosis and haemostasis : JTH, 2019).

Broadly, the stoichiometry N is the number of molecules, sites or subunits per partner or assembly.

Common to all, as to experiment: single-molecule atomic force microscopy
For data set [1], the target named is Factor XIII A subunit of plasma-purified inactive factor XIII (pFXIII-A2B2) (human) (UniProt P00488).
Data set [2] concerns the molecule itself.
Data set [3] concerns the molecule itself. The source holds these as a separate data set.
Data set [4] has as its target T1, recombinant inactive factor XIII A subunit from ZymoGenetics (rFXIII-A2) (human), P00488.
T1 chain: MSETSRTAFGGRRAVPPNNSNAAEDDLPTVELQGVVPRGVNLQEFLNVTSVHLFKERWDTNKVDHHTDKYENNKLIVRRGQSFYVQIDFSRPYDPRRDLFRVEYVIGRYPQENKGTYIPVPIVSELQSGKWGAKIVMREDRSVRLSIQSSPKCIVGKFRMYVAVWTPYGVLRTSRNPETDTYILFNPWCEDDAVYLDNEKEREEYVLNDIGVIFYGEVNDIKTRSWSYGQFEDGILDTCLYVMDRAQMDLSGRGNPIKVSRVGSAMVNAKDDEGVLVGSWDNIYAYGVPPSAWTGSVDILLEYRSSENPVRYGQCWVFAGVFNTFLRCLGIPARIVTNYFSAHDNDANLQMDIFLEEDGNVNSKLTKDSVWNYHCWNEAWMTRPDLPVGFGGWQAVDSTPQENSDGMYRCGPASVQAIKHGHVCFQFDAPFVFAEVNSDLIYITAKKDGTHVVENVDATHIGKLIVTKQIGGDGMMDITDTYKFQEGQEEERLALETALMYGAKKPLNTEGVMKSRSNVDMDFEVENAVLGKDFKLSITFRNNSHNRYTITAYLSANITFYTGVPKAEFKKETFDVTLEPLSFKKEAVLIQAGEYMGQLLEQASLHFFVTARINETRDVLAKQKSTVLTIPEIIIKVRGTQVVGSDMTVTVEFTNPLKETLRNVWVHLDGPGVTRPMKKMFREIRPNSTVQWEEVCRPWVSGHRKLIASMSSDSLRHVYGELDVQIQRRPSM
The following applies: remark: other sources report otherwise.

Data set [5] addresses T1, recombinant inactive factor XIII A …. The following applies: remark: other sources report otherwise.

Read-outs that look alike come from different tables or passages of the source.

In data set [1], “Factor XIII A subunit of plasma-purified inactive factor XIII (pFXIII-A2B2) (from UniProt P00488 39-732) (enzyme)” yielded a stoichiometry N of 2.

B1: recombinant factor XIII B subunit from Zedira (rFXIII-B2) (natural protein, human, UniProt P05160 21-661, looked up)
chain: EEKPCGFPHVENGRIAQYYYTFKSFYFPMSIDKKLSFFCLAGYTTESGRQEEQTTCTTEGWSPEPRCFKKCTKPDLSNGYISDVKLLYKIQENMRYGCASGYKTTGGKDEEVVQCLSDGWSSQPTCRKEHETCLAPELYNGNYSTTQKTFKVKDKVQYECATGYYTAGGKKTEEVECLTYGWSLTPKCTKLKCSSLRLIENGYFHPVKQTYEEGDVVQFFCHENYYLSGSDLIQCYNFGWYPESPVCEGRRNRCPPPPLPINSKIQTHSTTYRHGEIVHIECELNFEIHGSAEIRCEDGKWTEPPKCIEGQEKVACEEPPFIENGAANLHSKIYYNGDKVTYACKSGYLLHGSNEITCNRGKWTLPPECVENNENCKHPPVVMNGAVADGILASYATGSSVEYRCNEYYLLRGSKISRCEQGKWSSPPVCLEPCTVNVDYMNRNNIEMKWKYEGKVLHGDLIDFVCKQGYDLSPLTPLSELSVQCNRGEVKYPLCTRKESKGMCTSPPLIKHGVIISSTVDTYENGSSVEYRCFDHHFLEGSREAYCLDGMWTTPPLCLEPCTLSFTEMEKNNLLLKWDFDNRPHILHGEYIEFICRGDTYPAELYITGSILRMQCDRGQLKYPRCIPRQSTLSYQEPLRT
modifications: glycosylation pattern different from the plasma-purified B subunit (sites not given)
B1: in data set [2], the “stoichiometry N” value was found to be 2.

B2: Factor XIII B subunit of plasma-purified factor XIII (natural protein, human, UniProt P05160 21-661, looked up)
chain: EEKPCGFPHVENGRIAQYYYTFKSFYFPMSIDKKLSFFCLAGYTTESGRQEEQTTCTTEGWSPEPRCFKKCTKPDLSNGYISDVKLLYKIQENMRYGCASGYKTTGGKDEEVVQCLSDGWSSQPTCRKEHETCLAPELYNGNYSTTQKTFKVKDKVQYECATGYYTAGGKKTEEVECLTYGWSLTPKCTKLKCSSLRLIENGYFHPVKQTYEEGDVVQFFCHENYYLSGSDLIQCYNFGWYPESPVCEGRRNRCPPPPLPINSKIQTHSTTYRHGEIVHIECELNFEIHGSAEIRCEDGKWTEPPKCIEGQEKVACEEPPFIENGAANLHSKIYYNGDKVTYACKSGYLLHGSNEITCNRGKWTLPPECVENNENCKHPPVVMNGAVADGILASYATGSSVEYRCNEYYLLRGSKISRCEQGKWSSPPVCLEPCTVNVDYMNRNNIEMKWKYEGKVLHGDLIDFVCKQGYDLSPLTPLSELSVQCNRGEVKYPLCTRKESKGMCTSPPLIKHGVIISSTVDTYENGSSVEYRCFDHHFLEGSREAYCLDGMWTTPPLCLEPCTLSFTEMEKNNLLLKWDFDNRPHILHGEYIEFICRGDTYPAELYITGSILRMQCDRGQLKYPRCIPRQSTLSYQEPLRT
modifications: glycoprotein (sites not given)
As to B2, the “stoichiometry N” value in data set [3] was 2.

B3: recombinant inactive factor XIII A subunit from ZymoGenetics (rFXIII-A2), P00488 1-732 (enzyme)
chain: MSETSRTAFGGRRAVPPNNSNAAEDDLPTVELQGVVPRGVNLQEFLNVTSVHLFKERWDTNKVDHHTDKYENNKLIVRRGQSFYVQIDFSRPYDPRRDLFRVEYVIGRYPQENKGTYIPVPIVSELQSGKWGAKIVMREDRSVRLSIQSSPKCIVGKFRMYVAVWTPYGVLRTSRNPETDTYILFNPWCEDDAVYLDNEKEREEYVLNDIGVIFYGEVNDIKTRSWSYGQFEDGILDTCLYVMDRAQMDLSGRGNPIKVSRVGSAMVNAKDDEGVLVGSWDNIYAYGVPPSAWTGSVDILLEYRSSENPVRYGQCWVFAGVFNTFLRCLGIPARIVTNYFSAHDNDANLQMDIFLEEDGNVNSKLTKDSVWNYHCWNEAWMTRPDLPVGFGGWQAVDSTPQENSDGMYRCGPASVQAIKHGHVCFQFDAPFVFAEVNSDLIYITAKKDGTHVVENVDATHIGKLIVTKQIGGDGMMDITDTYKFQEGQEEERLALETALMYGAKKPLNTEGVMKSRSNVDMDFEVENAVLGKDFKLSITFRNNSHNRYTITAYLSANITFYTGVPKAEFKKETFDVTLEPLSFKKEAVLIQAGEYMGQLLEQASLHFFVTARINETRDVLAKQKSTVLTIPEIIIKVRGTQVVGSDMTVTVEFTNPLKETLRNVWVHLDGPGVTRPMKKMFREIRPNSTVQWEEVCRPWVSGHRKLIASMSSDSLRHVYGELDVQIQRRPSM
For the molecule B3, the stoichiometry N in data set [4] and in data set [5] was 2 in each case.
